Data taken from patent US11260098B2, “Method for suppressing obesity or development of obesity” (priority 2014, dated 2022).

Experiments:
mice = test: Conditioned taste aversion preference test; type: in vivo; settings: i.p. 0.5 ml, dose giving about 1/2 food suppression (1/4 dilution, 1/16 dilution, undiluted filtrate), FIG. 14
Protocol: 8. […] To define whether the appetite-suppressing effects induced by the undiluted solution of liquid component, the residual liquid containing the >3,000 component, and the filtrated liquid containing the <3,000 component were non-specific, a conditioned taste aversive test (a conditioned taste aversion preference test) was carried out in mice. For 5 days, each of mice was adapted to two bottles containing water, allowing to the drinking schedule of 2 hours per day (10:00 am to 12:00). On Day 6 of the test, each mice was allowed to drink water for 30 minutes followed by installation of 2 bottles added with saccharine solution (0.15%). Thereafter, saline, the liquid components or lithium chloride (molecular weight: 42.4 daltons) solution, each in an amount of 0.5 ml, was intraperitoneally administered to mice (n=5), and the conditions were set up as the aversion learning of the taste against saccharine solution. Subsequently, each of mice was subjected to drink for 90 minutes using 2 botties with water. […] On Day 8 of the test, the animals were allowed to drink for 30 minutes using 2 bottles with either water or saccharine solution, and the preference ratio for drinking of saccharine solution (the amounts of saccharine solution intake÷the amounts of entire water intake for 2 bottles) was calculated. […] The data are expressed as mean value±standard deviation. […]

rat = settings: centrally administered to the rat ventricle; cited from earlier work
[1] = intraperitoneal administration; cited from earlier work

In the case of [Cl-].[Li+] [lithium chloride], the “preference intake of saccharine solution” value (mice) is reported as “significantly suppressed”.

B1: nesfatin-1: satiety molecule generated by processing of the secretory protein nesfatin; human nesfatin-1 9,695 daltons (protein, UniProt P80303 25-106, looked up)
Nesfatin-1: VPIDIDKTKVQNIHPVESAKIEPPDTGLYYDEYLKQVIDVLETDKHFREKLQKADIEEIKSGRLSKELDLVSHHVRTKLDEL
modifications: Nesfatin-1
notes: satiety molecule generated by processing of the secretory protein nesfatin; human nesfatin-1 9,695 daltons
For B1, the food intake (rat) is given as “significantly suppressed” and the appetite suppression [1] is given as “induced appetite suppression in a dose-dependent manner”.
